Measurements taken from patent US20130040853A1, “Context Specific Genetic Screen Platform to Aid in Gene Discovery and Target Validation” (Dana-Farber Cancer Institute Inc., priority 2010, published 2013).

How the values were obtained:
[1] = test system: HMEL-BRAF^V600E melanocytes; test: In vivo functional genetic screen and secondary validation: kinase-transduced HMEL cells implanted in nude mice; set-up: species or system human; conditions: for Tumorigenicity in vivo: WT or mutant kinase expressed individually
From the text: A ‘cancer-kinase’ library was constructed containing sequence-verified ORFs in a lentiviral vector for 110 of the 120 kinases reported to sustain somatic driver mutations in diverse human cancers. This library was pooled and introduced into a human HMEL-BRAF^V600E melanocyte model system engineered with BRAF^V600E and TERT as well as p53DD and CDK4-R24C to inactivate the […] pathways, respectively. The HMEL-BRAF^V600E melanocyte profile, while representing the most common clinically-definable genetic profile in human melanoma, is insufficient to drive efficient melanoma formation following orthotopic transplantation in the skin (penetrance of 10% and latency of 26 weeks). In contrast, 40% of HMEL-BRAF^V600E melanocytes transduced with the cancer kinase pools developed tumors with an average latency of 13 weeks (range 10-18 weeks).
In vivo functional genetic screens: Lentivirus were prepared by co-transfecting 293T cells with individual vector backbones and standard virus packaging systems for subsequent collection of viral supernatants. Viral supernatants were then pooled randomly to generate 8 pools of high-titer lentiviral stocks. HMEL cells were transduced with either GFP control lentivirus or each representative lentiviral pool in the presence of 8 ug/ml polybrene (Company). Infected cells were expanded, mixed 1:1 with Matrigel (BD Bioscience) and then subcutaneously implanted in female nude animals (Taconic) at 1×10^6 cells per site on both flanks. Primary INK4A/ARF−/−, PTEN−/− murine astrocytes were transduced with either GFP control lentivirus or each representative lentiviral pool in the presence of 8 ug/ml polybrene (Company). Infected cells were expanded implanted into the brain parenchyma of female SCID mice (Charles River). Briefly, SCID mice were anesthetized and placed into a stereotactic apparatus equipped with a Z axis (Stoelting). A small hole was bored in the skull 0.5 mm anterior and 3.0 mm lateral to the bregma using a dental drill. Twenty thousand cells in Hank's Buffered Salt Solution were injected into the right caudate nucleus 2 mm below the surface of the brain using a 10-ul Hamilton syringe with an unbeveled 30 gauge needle. The scalp was closed using a 9-mm Autoclip Applier. Animals were followed daily for the development of subQ tumors or signs of neurological deficits. Animals were sacrifice, tumors were harvested, genomic DNA was prepared and kinases expressed in each tumor identified using PCR sequencing using plasmid specific CMV and V5 primers. Expression of each kinase was further validated by western blot analysis. Kinases expressed in each tumor were then enlisted into secondary validation screens in which stable HMEL or mouse astrocyte lines were generated expressing each kinase individually. Cells were again expanded and then implanted in female nude or SCID animals. All mice were housed and treated in accordance with protocols approved by the institutional care and use committees for animal research at the Dana-Farber Cancer Institute.

cJUN phosphorylation = test: JNK Kinase Assay (WT and mutant kinases immunoprecipitated from HMEL cells); type: biochemical, human; conditions: as reported by level of cJUN phosphorylation; for MAP2K4/7 first incubated with inactive JNK2

Row | Molecule | Tumorigenicity in vivo [1] | Kinase Activity (cJUN phosphorylation) | other results
1 | JNK1 WT: wild type MAPK8/JNK1 kinase ORF expressed in HMEL cells (protein, UniProt P45983 1-427, looked up) Mitogen-activated protein …: MSRSKRDNNFYSVEIGDSTFTVLKRYQNLKPIGSGAQGIVCAAYDAILERNVAIKKLSRPFQNQTHAKRAYRELVLMKCVNHKNIIGLLNVFTPQKSLEEFQDVYIVMELMDANLCQVIQMELDHERMSYLLYQMLCGIKHLHSAGIIHRDLKPSNIVVKSDCTLKILDFGLARTAGTSFMMTPYVVTRYYRAPEVILGMGYKENVDLWSVGCIMGEMVCHKILFPGRDYIDQWNKVIEQLGTPCPEFMKKLQPTVRTYVENRPKYAGYSFEKLFPDVLFPADSEHNKLKASQARDLLSKMLVIDASKRISVDEALQHPYINVWYDPSEAEAPPPKIPDKQLDEREHTIEEWKELIYKEVMDLEERTKNGVIRGQPSPLGAAVINGSQHPSSSSSVNDVSSMSTDPTLASDTDSSLEAAAGPLGCCR | YES |  | tumor generation individually in secondary HMEL screens ([1]; kinase transduced individually): did not generate tumors
2 | MAP2K4 WT: wild type MAP2K4 kinase ORF expressed from lentiviral vector in HMEL cells (protein, UniProt P45985 1-399, looked up, full-length, wild type MAP2K4 kinase ORF expressed from lentiviral vector in HMEL cells) MAAPSPSGGGGSGGGSGSGTPGPVGSPAPGHPAVSSMQGKRKALKLNFANPPFKSTARFTLNPNPTGVQNPHIERLRTHSIESSGKLKISPEQHWDFTAEDLKDLGEIGRGAYGSVNKMVHKPSGQIMAVKRIRSTVDEKEQKQLLMDLDVVMRSSDCPYIVQFYGALFREGDCWICMELMSTSFDKFYKYVYSVLDDVIPEEILGKITLATVKALNHLKENLKIIHRDIKPSNILLDRSGNIKLCDFGISGQLVDSIAKTRDAGCRPYMAPERIDPSASRQGYDVRSDVWSLGITLYELATGRFPYPKWNSVFDQLTQVVKGDPPQLSNSEEREFSPSFINFVNLCLTKDESKRPKYKELLKHPFILMYEERAVEVACYVCKILDQMPATPSSPMYVD | YES | 1X | tumor penetrance ([1]; secondary validation, kinase transduced individually into HMEL-BRAF^V600E melanocytes): 30%
3 | JNK2 p.V13M: JNK2 somatic mutant, observed in colorectal adenocarcinoma (protein, UniProt P45984 1-424, looked up, variant V13M) Mitogen-activated protein …: MSDSKCDSQFYSMQVADSTFTVLKRYQQLKPIGSGAQGIVCAAFDTVLGINVAVKKLSRPFQNQTHAKRAYRELVLLKCVNHKNIISLLNVFTPQKTLEEFQDVYLVMELMDANLCQVIHMELDHERMSYLLYQMLCGIKHLHSAGIIHRDLKPSNIVVKSDCTLKILDFGLARTACTNFMMTPYVVTRYYRAPEVILGMGYKENVDIWSVGCIMGELVKGCVIFQGTDHIDQWNKVIEQLGTPSAEFMKKLQPTVRNYVENRPKYPGIKFEELFPDWIFPSESERDKIKTSQARDLLSKMLVIDPDKRISVDEALRHPYITVWYDPAEAEAPPPQIYDAQLEEREHAIEEWKELIYKEVMDWEERSKNGVVKDQPSDAAVSSNATPSQSSSINDISSMSTEQTLASDTDSSLDASTGPLEGCR | YES |  | 
4 | JNK2 p.K56N: JNK2 somatic mutant, observed in head & neck squamous cell (protein, UniProt P45984 1-424, looked up, variant K56N) Mitogen-activated protein …: MSDSKCDSQFYSVQVADSTFTVLKRYQQLKPIGSGAQGIVCAAFDTVLGINVAVKNLSRPFQNQTHAKRAYRELVLLKCVNHKNIISLLNVFTPQKTLEEFQDVYLVMELMDANLCQVIHMELDHERMSYLLYQMLCGIKHLHSAGIIHRDLKPSNIVVKSDCTLKILDFGLARTACTNFMMTPYVVTRYYRAPEVILGMGYKENVDIWSVGCIMGELVKGCVIFQGTDHIDQWNKVIEQLGTPSAEFMKKLQPTVRNYVENRPKYPGIKFEELFPDWIFPSESERDKIKTSQARDLLSKMLVIDPDKRISVDEALRHPYITVWYDPAEAEAPPPQIYDAQLEEREHAIEEWKELIYKEVMDWEERSKNGVVKDQPSDAAVSSNATPSQSSSINDISSMSTEQTLASDTDSSLDASTGPLEGCR | YES |  | 
5 | MAP2K7 p.R162C: MAP2K7 somatic mutant, observed in colorectal adenocarcinoma (protein, UniProt O14733 2-419, looked up, variant R162C) Dual specificity …: AASSLEQKLSRLEAKLKQENREARRRIDLNLDISPQRPRPTLQLPLANDGGSRSPSSESSPQHPTPPARPRHMLGLPSTLFTPRSMESIEIDQKLQEIMKQTGYLTIGGQRYQAEINDLENLGEMGSGTCGQVWKMRFRKTGHVIAVKQMRRSGNKEENKCILMDLDVVLKSHDCPYIVQCFGTFITNTDVFIAMELMGTCAEKLKKRMQGPIPERILGKMTVAIVKALYYLKEKHGVIHRDVKPSNILLDERGQIKLCDFGISGRLVDSKAKTRSAGCAAYMAPERIDPPDPTKPDYDIRADVWSLGISLVELATGQFPYKNCKTDFEVLTKVLQEEPPLLPGHMGFSGDFQSFVKDCLTKDHRKRPKYNKLLEHSFIKRYETLEVDVASWFKDVMAKTESPRTSGVLSQPHLPFFR |  | 1X | 
6 | MAP2K7 p.R162H: MAP2K7 somatic mutant, observed in colorectal adenocarcinoma (protein, UniProt O14733 2-419, looked up, variant R162H) Dual specificity …: AASSLEQKLSRLEAKLKQENREARRRIDLNLDISPQRPRPTLQLPLANDGGSRSPSSESSPQHPTPPARPRHMLGLPSTLFTPRSMESIEIDQKLQEIMKQTGYLTIGGQRYQAEINDLENLGEMGSGTCGQVWKMRFRKTGHVIAVKQMRRSGNKEENKHILMDLDVVLKSHDCPYIVQCFGTFITNTDVFIAMELMGTCAEKLKKRMQGPIPERILGKMTVAIVKALYYLKEKHGVIHRDVKPSNILLDERGQIKLCDFGISGRLVDSKAKTRSAGCAAYMAPERIDPPDPTKPDYDIRADVWSLGISLVELATGQFPYKNCKTDFEVLTKVLQEEPPLLPGHMGFSGDFQSFVKDCLTKDHRKRPKYNKLLEHSFIKRYETLEVDVASWFKDVMAKTESPRTSGVLSQPHLPFFR |  | 1X | 
7 | MAP2K4 p.S251N: MAP2K4 somatic mutant identified in a melanoma (protein, UniProt P45985 2-399, looked up, variant S251N) Dual specificity …: AAPSPSGGGGSGGGSGSGTPGPVGSPAPGHPAVSSMQGKRKALKLNFANPPFKSTARFTLNPNPTGVQNPHIERLRTHSIESSGKLKISPEQHWDFTAEDLKDLGEIGRGAYGSVNKMVHKPSGQIMAVKRIRSTVDEKEQKQLLMDLDVVMRSSDCPYIVQFYGALFREGDCWICMELMSTSFDKFYKYVYSVLDDVIPEEILGKITLATVKALNHLKENLKIIHRDIKPSNILLDRSGNIKLCDFGINGQLVDSIAKTRDAGCRPYMAPERIDPSASRQGYDVRSDVWSLGITLYELATGRFPYPKWNSVFDQLTQVVKGDPPQLSNSEEREFSPSFINFVNLCLTKDESKRPKYKELLKHPFILMYEERAVEVACYVCKILDQMPATPSSPMYVD |  | 1X | 
8 | MAP2K4 p.N2341: MAP2K4 somatic driver mutant, observed in ovarian serous carcinoma (protein, UniProt P45985 2-399, looked up, variant N234I) Dual specificity …: AAPSPSGGGGSGGGSGSGTPGPVGSPAPGHPAVSSMQGKRKALKLNFANPPFKSTARFTLNPNPTGVQNPHIERLRTHSIESSGKLKISPEQHWDFTAEDLKDLGEIGRGAYGSVNKMVHKPSGQIMAVKRIRSTVDEKEQKQLLMDLDVVMRSSDCPYIVQFYGALFREGDCWICMELMSTSFDKFYKYVYSVLDDVIPEEILGKITLATVKALNHLKENLKIIHRDIKPSIILLDRSGNIKLCDFGISGQLVDSIAKTRDAGCRPYMAPERIDPSASRQGYDVRSDVWSLGITLYELATGRFPYPKWNSVFDQLTQVVKGDPPQLSNSEEREFSPSFINFVNLCLTKDESKRPKYKELLKHPFILMYEERAVEVACYVCKILDQMPATPSSPMYVD |  | 2.5X^ | 
9 | MAP2K4 p.A279T: MAP2K4 somatic driver mutant, observed in colorectal adenocarcinoma (protein, UniProt P45985 2-399, looked up, variant A279T) Dual specificity …: AAPSPSGGGGSGGGSGSGTPGPVGSPAPGHPAVSSMQGKRKALKLNFANPPFKSTARFTLNPNPTGVQNPHIERLRTHSIESSGKLKISPEQHWDFTAEDLKDLGEIGRGAYGSVNKMVHKPSGQIMAVKRIRSTVDEKEQKQLLMDLDVVMRSSDCPYIVQFYGALFREGDCWICMELMSTSFDKFYKYVYSVLDDVIPEEILGKITLATVKALNHLKENLKIIHRDIKPSNILLDRSGNIKLCDFGISGQLVDSIAKTRDAGCRPYMAPERIDPSTSRQGYDVRSDVWSLGITLYELATGRFPYPKWNSVFDQLTQVVKGDPPQLSNSEEREFSPSFINFVNLCLTKDESKRPKYKELLKHPFILMYEERAVEVACYVCKILDQMPATPSSPMYVD |  | <1X | 
